# Test results published in patent US20150344570A1 (published 2015).
# Changes are numbered by the printed parent chain. Names may count otherwise. Where two headings read alike, the source gives them in different places.
# B1: GpH7-Kn033/GpH7-Hl033/GpL16-k0 (antibody, human IgG1, kappa)
# heavy 1: not shown
# heavy 2: not shown
# light: DIVMTQSPLSLPVTPGEPASISCQASESLVHSNRNTYLHWYLQKPGQSPQLLIYKVSNRFSGVPDRFSGSGSGTDFTLKISRVEAEDVGVYYCSQNTHVPPTFGQGTKVEIERTVAAPSVFIFPPSDEQLKSGTASVVCLLNNFYPREAKVQWKVDNALQSGNSQESVTEQDSKDSTYSLSSTLTLSKADYEKHKVYACEVTHQGLSSPVTKSFNRGEC
# notes: Anti-glypican-3 antibody; knobs-into-holes alone applied to G1d (knob chain Y349C/T366W; hole chain D356C/T366S/L368A/Y407V); also called Kn033/Hl033
# B2: IL6R-BP253/IL6R-L (antibody, human IgG1, kappa)
# heavy: QVQLQESGPGLVKPSETLSLTCAVSGHSISHDHAWSWVRQPPGEGLEWIGFISYSGITNYNPSLQGRVTISRDNSKNTLYLQMNSLRAEDTAVYYCARSLARTTAMDYWGEGTLVTVSSASTKGPSVFPLAPSSKSTSGGTAALGCLVKDYFPEPVTVSWNSGALTSGVHTFPAVLQSSGLYSLSSVVTVPSSSLGTQTYICNVNHKPSNTKVDKKVEPKSCDKTHTCPPCPAPELLGGPSVFLFPPKPKDTLMISRTPEVTCVVVDVEHEDPEVKFNWYVDGVEVHNAKTKPREEQYNSTYRVVSVLTVLHQDWLNGKEYKCKVSNKAFPAPIEKTISKAKGQPREPQVYTLPPSRDELTKNQVSLTCLVKGFYPSDIAVEWESNGQPENNYKTTPPVLDSDGSFFLYSKLTVDKSRWQQGNVFSCSVMHEALHNHYTQESLSLSP
# light: not shown
# notes: Homodimer
# B3: H240-Kn061/H240-Hl071/L73-k0 (antibody, human IgG1, kappa)
# heavy 1: QDQLVQSGAEVKKPGASVKVSCKASGFNIKDTYIQWVRQAPGQGLEWMGRIDPLRKQTKYREKFEGRVTITADTSTNTAYMELSSLRSEDTAVYYCVRSGREFDYWGQGTLVTVSSASTKGPSVFPLAPSSKSTSGGTAALGCLVKDYFPEPVTVSWNSGALTSGVHTFPAVLQSSGLYSLSSVVTVPSSSLGTQTYICNVNHKPSNTKVDKKVEPKSCDKTHTCPPCPAPEYYWGPSVFLFPPKPKDTLMISRTPEVTCVVVDVSDEDPEVKFNWYVDGVEVHNAKTKPREEQYNATYRVVSVLTVLHQDWLNGKEYKCKVSNKALPAPIEKTISKAKGQPREPQVCTLPPSRDELTKNQVSLWCLVKGFYPSDIAVEWESNGQPENNYKTTPPVLDSDGSFFLYSKLTVDKSRWQQGNVFSCSVMHEALHNHYTQKSLSLSP
# heavy 2: QDQLVQSGAEVKKPGASVKVSCKASGFNIKDTYIQWVRQAPGQGLEWMGRIDPLRKQTKYREKFEGRVTITADTSTNTAYMELSSLRSEDTAVYYCVRSGREFDYWGQGTLVTVSSASTKGPSVFPLAPSSKSTSGGTAALGCLVKDYFPEPVTVSWNSGALTSGVHTFPAVLQSSGLYSLSSVVTVPSSSLGTQTYICNVNHKPSNTKVDKKVEPKSCDKTHTCPPCPAPELLGGPSVFLFPPKPKDTLMISRTPEVTCVVVDVSHEDPEVKFNWYVDGVEVHNAKTKPREEQYNSTYRVVSVLTVLHQDWLNGKEYKCKVSNDALPMPIEETISKAKGQPREPQVYTLPPSRCELTKNQVSLSCAVKGFYPSDIAVEWESNGQPENNYKTTPPVLDSDGSFFLVSKLTVDKSRWQQGNVFSCSVMHEALHNHYTQKSLSLSP
# light: DIQMTQSPSSLSASVGDRVTITCRASQDIHKYIAWYQQKPGQAPRLLIQYTSTLQPGVPSRFSGSGSGTDYTFTISSLQPEDIATYYCLQYEQLRTFGGGTKVEIKRTVAAPSVFIFPPSDEQLKSGTASVVCLLNNFYPREAKVQWKVDNALQSGNSQESVTEQDSKDSTYSLSSTLTLSKADYEKHKVYACEVTHQGLSSPVTKSFNRGEC
# notes: Heterodimerized anti-epiregulin IgG1, knobs-into-holes
# B4: H240-Kn061/H240-Hl071/L73-k0 (antibody, human IgG1, kappa)
# heavy 1: B3 heavy 1
# heavy 2: B3 heavy 2
# light: B3 light
# notes: Heterodimerized: L234Y/L235Y/G236W/H268D/S298A in the knob chain, K326D/A330M/K334E in the hole chain
# Experiments:
# [1] = biological target: T1, FcgRIIa R (human, UniProt P12318 34-217); experiment: SPR (Biacore); KD of GpH7-Kn033/GpH7-Hl033/GpL16-k0 for this FcγR divided by KD of this antibody (reference itself)
# T1 construct: extracellular domain; also called FcγRIIa R; FcγRIIa type R
# T1 sequence (looked up): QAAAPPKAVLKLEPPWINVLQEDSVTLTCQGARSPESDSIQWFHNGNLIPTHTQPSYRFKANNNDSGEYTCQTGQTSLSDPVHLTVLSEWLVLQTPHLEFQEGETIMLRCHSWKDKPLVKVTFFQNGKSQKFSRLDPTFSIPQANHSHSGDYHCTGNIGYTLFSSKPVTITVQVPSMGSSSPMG
# [2] = biological target: T2, FcgRIIIa F (human, UniProt P08637 17-208); experiment: as above
# T2 construct: extracellular domain; also called FcγRIIIa F; FcγRIIIaF
# T2 sequence (P08637 17-208): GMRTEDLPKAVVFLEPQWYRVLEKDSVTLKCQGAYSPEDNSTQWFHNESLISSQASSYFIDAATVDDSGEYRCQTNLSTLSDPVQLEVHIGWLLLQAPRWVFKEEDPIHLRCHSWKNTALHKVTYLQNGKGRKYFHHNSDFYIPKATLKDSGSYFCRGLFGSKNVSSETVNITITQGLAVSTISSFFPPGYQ
# [3] = biological target: T3, FcgRIIIa V (human, UniProt P08637 17-208); experiment: as above
# T3 construct: extracellular domain; also called FcγRIIIa V; FcγRIIIaV
# T3 sequence (P08637 17-208 F176V limits assumed): as the sequence (P08637 17-208) above, with F160V counted along it
# [4] = biological target: T4, FcgRIa (human, UniProt P12314 16-292); experiment: as above
# T4 construct: extracellular domain; also called FcγRIa; FcγRI
# T4 sequence (P12314 16-292): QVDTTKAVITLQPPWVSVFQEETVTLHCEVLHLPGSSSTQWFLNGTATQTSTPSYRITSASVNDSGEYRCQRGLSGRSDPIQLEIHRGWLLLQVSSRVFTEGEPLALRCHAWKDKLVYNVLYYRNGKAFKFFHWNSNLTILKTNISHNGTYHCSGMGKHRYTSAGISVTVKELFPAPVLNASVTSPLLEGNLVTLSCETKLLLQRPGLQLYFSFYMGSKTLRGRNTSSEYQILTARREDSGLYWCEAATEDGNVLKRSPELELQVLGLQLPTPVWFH
# [5] = biological target: T5, FcgRIIb (human, UniProt P31994 43-217); experiment: as above
# T5 construct: extracellular domain; also called FcγRIIb; CD32B
# T5 sequence (looked up): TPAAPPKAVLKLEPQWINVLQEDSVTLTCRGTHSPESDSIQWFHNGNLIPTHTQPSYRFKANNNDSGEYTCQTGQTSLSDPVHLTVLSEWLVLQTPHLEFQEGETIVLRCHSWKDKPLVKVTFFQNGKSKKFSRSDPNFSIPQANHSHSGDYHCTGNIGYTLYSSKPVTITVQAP
# [6] = biological target: T6, FcgRIIa H (human, UniProt P12318 34-217); experiment: as above
# T6 construct: extracellular domain; also called FcγRIIa H; FcγRIIa type H
# T6 sequence (looked up): T1 sequence (looked up) with R134H
# [7] = biological target: T7, FcgRIIaH (human, UniProt P12318 34-217); experiment: SPR (Biacore); KD of IL6R-B3/IL6R-L divided by KD of the sample
# T7 construct: extracellular domain; Allotype H131; also called FcγRIIa H; FcgRIIa type H; not shown: His tag attached to the C terminus
# T7 sequence (looked up): T1 sequence (looked up) with R134H
# [8] = biological target: T8, FcgRIIaR (human, UniProt P12318 34-217); experiment: as above
# T8 construct: extracellular domain; Allotype R131; also called FcγRIIa R; FcgRIIa type R; not shown: His tag attached to the C terminus
# T8 sequence (looked up): T1 sequence (looked up)
# [9] = biological target: T9, FcgRIIb (human, UniProt P31994 43-217); experiment: as above
# T9 construct: extracellular domain; also called FcγRIIb; CD32B; not shown: His tag attached to the C terminus
# T9 sequence (looked up): T5 sequence (looked up)
# [10] = biological target: T10, FcγRIa extracellular domain with C-terminal His tag (human, UniProt P12314 16-292); experiment: SPR (Biacore), antibody captured on chip, soluble FcγR as analyte, 1:1 Langmuir fit
# T10 construct: extracellular domain; Soluble receptor expressed in FreeStyle293 cells; used as analyte in Biacore; also called FcgRIa; FcgRI; not shown: His tag at the C terminus
# T10 sequence (P12314 16-292): as the sequence (P12314 16-292) above
# Experimental: (§1) Analysis of interaction between objective antibody and the FcγR was carried out using Biacore T100 (GE Healthcare), Biacore T200, Biacore A100, and Biacore 4000. HBS-EP+ (GE Healthcare) was used as the running buffer, and the measurement temperature was set to 25° C. Chips produced by immobilizing the antigen peptide by the amine coupling method to a Series S sensor Chip CM5 (GE Healthcare), chips produced by allowing preliminarily biotinylated antigen peptides to interact with and immobilize onto a Series S Sensor Chip SA (certified) (GE Healthcare), chips produced by immobilizing Protein L (ACTIGEN, BioVision) to Series S Sencor Chip CM5 (GE Healthcare), or chips produced by immobilizing Protein A/G (Thermo Scientific) to Series S Sencor Chip CM5 (GE Healthcare) were used. Antibodies of interest were captured onto these chips, and allowed to interact to each FcγR diluted with running buffer. To regenerate and repeatedly use the chip, the antibodies captured onto the chip were washed off by reacting 10 mM glycine-HCl, pH 1.5.
# [11] = biological target: T11, FcγRIIa R extracellular domain with C-terminal His tag (human, UniProt P12318 34-217); experiment: as above
# T11 construct: extracellular domain; Soluble receptor, R131 allotype; also called FcgRIIa R; FcgRIIaR; not shown: His tag at the C terminus
# T11 sequence (looked up): T1 sequence (looked up)
# Experimental: as §1
# [12] = biological target: T12, FcγRIIIa V extracellular domain with C-terminal His tag (human, UniProt P08637 17-208); experiment: as above
# T12 construct: extracellular domain; Soluble receptor, V158 allotype; also called FcgRIIIa V; FcgRIIIaV; not shown: His tag at the C terminus
# T12 sequence (P08637 17-208 F176V): as the sequence (P08637 17-208) above, with F160V counted along it
# Experimental: as §1
# [13] = biological target: T13, FcγRIIb extracellular domain with C-terminal His tag (human, UniProt P31994 43-217); experiment: as above
# T13 construct: extracellular domain; also called FcgRIIb; CD32B; not shown: His tag at the C terminus
# T13 sequence (looked up): T5 sequence (looked up)
# Experimental: as §1
# [14] = biological target: T14, FcγRIIa H extracellular domain with C-terminal His tag (human, UniProt P12318 34-217); experiment: as above
# T14 construct: extracellular domain; Soluble receptor, H131 allotype; also called FcgRIIa H; FcgRIIaH; not shown: His tag at the C terminus
# T14 sequence (looked up): T1 sequence (looked up) with R134H
# Experimental: as §1
# [15] = biological target: T15, FcγRIIIa F extracellular domain with C-terminal His tag (human, UniProt P08637 17-208); experiment: as above
# T15 construct: extracellular domain; Soluble receptor, F158 allotype; also called FcgRIIIa F; FcgRIIIaF; not shown: His tag at the C terminus
# T15 sequence (P08637 17-208): as the sequence (P08637 17-208) above
# Experimental: as §1
# [16] = biological target: T12, FcγRIIIa V extracellular domain with …; experiment: as above; remark: listed apart in the source
# Experimental: (§2) Specifically, H240-Hl134 (SEQ ID NO: 88) resulting from introduction of L234Y/L235Y/G236W/H268D/S298A into H240-Hl033 and H240-Kn132 (SEQ ID NO: 89) resulting from introduction of K326D/A330M/K334E into H240-Kn033 were constructed according to the method described in Reference Example 1.
# as §1
# [17] = biological target: T15, FcγRIIIa F extracellular domain with …; experiment: as above; remark: listed apart in the source
# Experimental: as §2, §1
# [18] = biological target: T16, FcgRIIIa F (human, UniProt P08637 17-208); experiment: SPR (Biacore), antibody captured, FcgR as analyte
# T16 construct: extracellular domain; polymorphic site made after J. Clin. Invest; also called FcγRIIIa F
# Experimental: as §1
# T16 sequence (P08637 17-208): as above
# [19] = biological target: T17, FcgRIIIa V (human, UniProt P08637 17-208); experiment: SPR (Biacore), antibody captured, FcgR as analyte
# T17 construct: extracellular domain; polymorphic site made after J. Clin. Invest; also called FcγRIIIa V
# Experimental: as §1
# T17 sequence (P08637 17-208 F176V limits assumed): as the sequence (P08637 17-208) above, with F160V counted along it
# [20] = biological target: T18, FcgRIIb (human, UniProt P31994 43-217); experiment: SPR (Biacore), antibody captured, FcgR as analyte
# T18 construct: extracellular domain; also called FcγRIIb; CD32B
# T18 sequence (looked up): T5 sequence (looked up)
# Experimental: as §1
# [21] = biological target: T19, FcgRIIa R (human, UniProt P12318 34-217); experiment: SPR (Biacore), antibody captured, FcgR as analyte
# T19 construct: extracellular domain; also called FcγRIIa R; FcγRIIa type R
# T19 sequence (looked up): T1 sequence (looked up)
# Experimental: as §1
# [22] = biological target: T20, FcgRIIa H (human, UniProt P12318 34-217); experiment: SPR (Biacore), antibody captured, FcgR as analyte
# T20 construct: extracellular domain; also called FcγRIIa H; FcγRIIa type H
# T20 sequence (looked up): T1 sequence (looked up) with R134H
# Experimental: as §1
# [23] = biological target: T21, FcgRIa (human, UniProt P12314 16-292); experiment: SPR (Biacore), antibody captured, FcgR as analyte
# T21 construct: extracellular domain; also called FcγRIa; FcγRI
# Experimental: as §1
# T21 sequence (P12314 16-292): as the sequence (P12314 16-292) above
binder,measurement,setting,value
B1,KD ratio,[1],1 fold
same,KD ratio,[2],1 fold
same,KD ratio,[3],1 fold
same,KD ratio,[4],1 fold
same,KD ratio,[5],1 fold
same,KD ratio,[6],1 fold
B2,relative KD,[7],0.9
same,relative KD,[8],480
same,relative KD,[9],349
B3,Kd,[10],0.14 nM
same,Kd,[11],350 nM
same,Kd,[12],1.8 nM
same,Kd,[13],1200 nM
same,Kd,[14],280 nM
same,Kd,[15],5.1 nM
same,Kd,[16],1.8 nM
same,Kd,[17],5.1 nM
B4,Kd,[18],5.1 nM
same,Kd,[19],1.8 nM
same,Kd,[20],1200 nM
same,Kd,[21],350 nM
same,Kd,[22],280 nM
same,Kd,[23],0.14 nM
